Results as given in patent publication US20230391861A1 (Stanford University, published 2023).

T1: PTCH1 on NIH-3T3 / 3T3-Light2 cells (UniProt Q61115 1-1434, limits assumed)
T1 sequence (looked up): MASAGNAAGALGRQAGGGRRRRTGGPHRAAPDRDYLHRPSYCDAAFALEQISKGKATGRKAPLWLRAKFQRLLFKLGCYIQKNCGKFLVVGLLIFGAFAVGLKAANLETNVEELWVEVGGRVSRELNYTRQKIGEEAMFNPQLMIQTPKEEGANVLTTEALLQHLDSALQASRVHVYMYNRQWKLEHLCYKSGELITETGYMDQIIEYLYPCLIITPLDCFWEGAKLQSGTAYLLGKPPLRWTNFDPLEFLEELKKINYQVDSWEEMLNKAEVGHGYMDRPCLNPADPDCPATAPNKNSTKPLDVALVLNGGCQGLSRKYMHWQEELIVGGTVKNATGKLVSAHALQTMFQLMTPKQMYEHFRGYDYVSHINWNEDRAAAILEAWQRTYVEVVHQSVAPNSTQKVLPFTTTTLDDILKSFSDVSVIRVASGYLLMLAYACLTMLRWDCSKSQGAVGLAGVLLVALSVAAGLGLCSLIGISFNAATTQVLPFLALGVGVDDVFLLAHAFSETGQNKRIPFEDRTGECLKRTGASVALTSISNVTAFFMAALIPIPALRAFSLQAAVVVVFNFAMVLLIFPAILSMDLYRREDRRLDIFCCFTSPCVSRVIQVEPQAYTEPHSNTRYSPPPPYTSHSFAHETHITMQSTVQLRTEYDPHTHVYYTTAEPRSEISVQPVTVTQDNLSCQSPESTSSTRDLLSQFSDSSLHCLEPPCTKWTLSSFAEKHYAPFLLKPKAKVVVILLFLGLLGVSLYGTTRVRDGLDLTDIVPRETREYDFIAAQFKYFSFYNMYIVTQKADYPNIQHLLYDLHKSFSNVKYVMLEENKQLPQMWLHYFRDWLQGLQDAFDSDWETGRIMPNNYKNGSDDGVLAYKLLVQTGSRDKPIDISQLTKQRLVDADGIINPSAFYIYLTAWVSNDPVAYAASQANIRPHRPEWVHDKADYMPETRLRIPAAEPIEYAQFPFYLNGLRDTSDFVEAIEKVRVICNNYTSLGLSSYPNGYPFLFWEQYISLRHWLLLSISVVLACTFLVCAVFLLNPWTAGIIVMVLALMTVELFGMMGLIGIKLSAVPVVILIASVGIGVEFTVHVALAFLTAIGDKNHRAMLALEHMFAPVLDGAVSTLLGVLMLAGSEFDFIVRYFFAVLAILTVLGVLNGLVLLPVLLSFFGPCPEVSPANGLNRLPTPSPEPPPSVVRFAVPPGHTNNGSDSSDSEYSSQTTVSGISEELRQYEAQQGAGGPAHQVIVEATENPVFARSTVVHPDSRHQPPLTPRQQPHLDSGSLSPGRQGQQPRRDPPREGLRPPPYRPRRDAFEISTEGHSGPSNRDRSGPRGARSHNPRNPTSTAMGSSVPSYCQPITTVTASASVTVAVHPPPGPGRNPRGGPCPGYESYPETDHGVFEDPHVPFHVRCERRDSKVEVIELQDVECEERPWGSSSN

T2: Ptch1-C-NNQ (Ptch1-C with D499N, D500N, E1081Q) (mouse, UniProt Q61115 1-618; Q61115 712-1173)
T2 construct: range 1-618;range 712-1173; also called PTCH1-NNQ; NNQ variant; not shown: 1D4 tag
T2 sequence (looked up): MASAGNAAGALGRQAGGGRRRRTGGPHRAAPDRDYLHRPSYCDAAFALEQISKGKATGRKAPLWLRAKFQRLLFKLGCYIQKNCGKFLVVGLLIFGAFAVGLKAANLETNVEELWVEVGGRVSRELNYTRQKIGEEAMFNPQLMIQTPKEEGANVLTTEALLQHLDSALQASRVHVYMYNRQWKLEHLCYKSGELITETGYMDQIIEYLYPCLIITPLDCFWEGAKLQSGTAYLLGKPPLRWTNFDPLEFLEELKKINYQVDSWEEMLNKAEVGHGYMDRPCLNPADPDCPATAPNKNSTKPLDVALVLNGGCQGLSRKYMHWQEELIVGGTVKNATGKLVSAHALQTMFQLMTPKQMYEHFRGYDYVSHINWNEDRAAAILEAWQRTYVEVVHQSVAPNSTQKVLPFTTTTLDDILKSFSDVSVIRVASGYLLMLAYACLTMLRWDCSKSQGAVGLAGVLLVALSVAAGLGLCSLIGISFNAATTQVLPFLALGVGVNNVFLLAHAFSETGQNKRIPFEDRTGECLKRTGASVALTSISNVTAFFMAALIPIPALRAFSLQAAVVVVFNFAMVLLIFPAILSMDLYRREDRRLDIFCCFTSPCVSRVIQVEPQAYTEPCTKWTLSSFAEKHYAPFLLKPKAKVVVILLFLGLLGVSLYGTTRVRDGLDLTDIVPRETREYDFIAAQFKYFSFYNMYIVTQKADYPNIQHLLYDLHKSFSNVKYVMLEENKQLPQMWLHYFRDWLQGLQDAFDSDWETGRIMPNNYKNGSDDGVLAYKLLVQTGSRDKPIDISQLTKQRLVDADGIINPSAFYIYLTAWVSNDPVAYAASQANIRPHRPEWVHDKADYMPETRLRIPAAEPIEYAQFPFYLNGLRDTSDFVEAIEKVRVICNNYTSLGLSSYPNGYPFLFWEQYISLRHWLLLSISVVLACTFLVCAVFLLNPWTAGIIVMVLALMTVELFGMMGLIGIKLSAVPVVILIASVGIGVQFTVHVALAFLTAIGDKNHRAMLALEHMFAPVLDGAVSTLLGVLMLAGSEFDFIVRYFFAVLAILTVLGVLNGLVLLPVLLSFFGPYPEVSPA

T3: Human PTCH1 on HEPM cells (human, UniProt Q13635 1-1447)
T3 sequence (looked up): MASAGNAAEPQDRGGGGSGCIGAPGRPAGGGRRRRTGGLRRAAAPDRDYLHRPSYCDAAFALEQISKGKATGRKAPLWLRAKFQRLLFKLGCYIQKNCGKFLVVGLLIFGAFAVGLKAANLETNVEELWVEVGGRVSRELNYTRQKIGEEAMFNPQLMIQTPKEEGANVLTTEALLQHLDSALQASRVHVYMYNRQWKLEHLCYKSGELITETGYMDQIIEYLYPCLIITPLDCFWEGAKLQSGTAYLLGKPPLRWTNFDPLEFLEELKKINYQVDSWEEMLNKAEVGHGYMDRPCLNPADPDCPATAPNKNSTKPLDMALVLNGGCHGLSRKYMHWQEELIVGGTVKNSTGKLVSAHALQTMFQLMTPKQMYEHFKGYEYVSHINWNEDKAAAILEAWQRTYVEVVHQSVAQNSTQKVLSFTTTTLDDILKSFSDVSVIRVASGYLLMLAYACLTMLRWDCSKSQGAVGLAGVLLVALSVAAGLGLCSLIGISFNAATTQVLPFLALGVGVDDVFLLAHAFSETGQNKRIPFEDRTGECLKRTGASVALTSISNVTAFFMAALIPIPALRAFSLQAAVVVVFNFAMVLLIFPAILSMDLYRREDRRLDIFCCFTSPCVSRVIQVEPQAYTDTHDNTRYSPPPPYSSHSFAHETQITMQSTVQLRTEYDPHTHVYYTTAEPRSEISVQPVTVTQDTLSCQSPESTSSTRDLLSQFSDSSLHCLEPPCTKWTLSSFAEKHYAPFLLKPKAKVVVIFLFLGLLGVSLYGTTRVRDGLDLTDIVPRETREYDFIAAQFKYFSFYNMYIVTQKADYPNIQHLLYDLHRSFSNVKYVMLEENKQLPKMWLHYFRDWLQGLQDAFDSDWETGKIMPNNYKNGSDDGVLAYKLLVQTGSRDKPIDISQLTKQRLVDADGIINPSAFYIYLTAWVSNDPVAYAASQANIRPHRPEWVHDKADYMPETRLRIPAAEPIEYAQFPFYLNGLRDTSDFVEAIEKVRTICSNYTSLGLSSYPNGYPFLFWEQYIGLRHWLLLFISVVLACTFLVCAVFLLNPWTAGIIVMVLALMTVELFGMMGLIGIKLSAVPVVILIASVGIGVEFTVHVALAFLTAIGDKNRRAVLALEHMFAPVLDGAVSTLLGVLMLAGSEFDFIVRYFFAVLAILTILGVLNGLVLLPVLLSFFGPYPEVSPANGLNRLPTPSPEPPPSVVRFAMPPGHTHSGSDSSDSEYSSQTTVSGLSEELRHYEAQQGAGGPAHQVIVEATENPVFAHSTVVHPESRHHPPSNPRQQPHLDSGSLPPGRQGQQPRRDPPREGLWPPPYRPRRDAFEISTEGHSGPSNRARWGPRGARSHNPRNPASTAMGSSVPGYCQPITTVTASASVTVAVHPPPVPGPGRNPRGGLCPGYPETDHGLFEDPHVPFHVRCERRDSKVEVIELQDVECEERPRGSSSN


Assays:
[1] = target: T1, PTCH1 on NIH-3T3 / 3T3-Light2 cells; experiment: cell-based or functional assay
[2] = target: T2, Ptch1-C-NNQ (Ptch1-C with D499N, D500N, …); experiment: two-color staining of yeast cells expressing the variants
[3] = target: T3, Human PTCH1 on HEPM cells; experiment: cell-based or functional assay

| EC50, Gli-luciferase assay in NIH-3T3 cells [1] | binding result [2] | Molecule | other results |
| --- | --- | --- | --- |
| 1.4 nM |  | ShhNp (ligand) |  |
|  | binds | T23 nanobody (VHH, also called 23T) VHH: QVQLQESGGGLVQAGGSLRLSCAASGNIFAYYIMGWYRQAPGKERELVATIDIGGNTNYADSVKGRFTISRDNAKNTVYLQMNSLKPEDTAVYYCAVQAVPYRYRRYWGQGTQVTVSS |  |
| 6.9 nM |  | TI23 nanobody (VHH) VHH: QVQLQESGGGLVQAGGSLRLSCAASGNIFAYYIMGWYRQAPGKERELVATIDIGGNTNYADSVKGRFTISRDNAKNNVYLQMNSLKPEDTAVYYCAVQAVPIRYRRYWGQGTQVTVSS | EC50, transcription of GLI1 in HEPM cells (qPCR) [3]: 16 nM; EC50, transcription of PTCH1 in HEPM cells (qPCR) [3]: 18.5 nM; EC50, Gli-dependent luciferase reporter in 3T3 cells [1]: 8.6 nM; maximum response relative to ShhNp, Gli-luciferase assay [1]: ~75% |
|  | binds | Nanobody clone 23 (VHH, Initial clone from the synthetic yeast display library; also called Nb23; NB23) VHH: QVQLQESGGGLVQAGGSLRLSCAASGNIFAYYIMGWYRQAPGKERELVAGIDIGGNTNYADSVKGRFTISRDNAKNTVYLQMNSLKPEDTAVYYCAVQAVPYRYHGYWGQGTQVTVSS |  |
